Source: patent publication US20170355757A1 (Regeneron, published 2017)

T1: monkey C5-mmh (monkey, UniProt P01031 19-1676 (human entry), limits assumed)
T1 construct: Expressed with a C-terminal myc-myc-hexahistidine tag
T1 chain: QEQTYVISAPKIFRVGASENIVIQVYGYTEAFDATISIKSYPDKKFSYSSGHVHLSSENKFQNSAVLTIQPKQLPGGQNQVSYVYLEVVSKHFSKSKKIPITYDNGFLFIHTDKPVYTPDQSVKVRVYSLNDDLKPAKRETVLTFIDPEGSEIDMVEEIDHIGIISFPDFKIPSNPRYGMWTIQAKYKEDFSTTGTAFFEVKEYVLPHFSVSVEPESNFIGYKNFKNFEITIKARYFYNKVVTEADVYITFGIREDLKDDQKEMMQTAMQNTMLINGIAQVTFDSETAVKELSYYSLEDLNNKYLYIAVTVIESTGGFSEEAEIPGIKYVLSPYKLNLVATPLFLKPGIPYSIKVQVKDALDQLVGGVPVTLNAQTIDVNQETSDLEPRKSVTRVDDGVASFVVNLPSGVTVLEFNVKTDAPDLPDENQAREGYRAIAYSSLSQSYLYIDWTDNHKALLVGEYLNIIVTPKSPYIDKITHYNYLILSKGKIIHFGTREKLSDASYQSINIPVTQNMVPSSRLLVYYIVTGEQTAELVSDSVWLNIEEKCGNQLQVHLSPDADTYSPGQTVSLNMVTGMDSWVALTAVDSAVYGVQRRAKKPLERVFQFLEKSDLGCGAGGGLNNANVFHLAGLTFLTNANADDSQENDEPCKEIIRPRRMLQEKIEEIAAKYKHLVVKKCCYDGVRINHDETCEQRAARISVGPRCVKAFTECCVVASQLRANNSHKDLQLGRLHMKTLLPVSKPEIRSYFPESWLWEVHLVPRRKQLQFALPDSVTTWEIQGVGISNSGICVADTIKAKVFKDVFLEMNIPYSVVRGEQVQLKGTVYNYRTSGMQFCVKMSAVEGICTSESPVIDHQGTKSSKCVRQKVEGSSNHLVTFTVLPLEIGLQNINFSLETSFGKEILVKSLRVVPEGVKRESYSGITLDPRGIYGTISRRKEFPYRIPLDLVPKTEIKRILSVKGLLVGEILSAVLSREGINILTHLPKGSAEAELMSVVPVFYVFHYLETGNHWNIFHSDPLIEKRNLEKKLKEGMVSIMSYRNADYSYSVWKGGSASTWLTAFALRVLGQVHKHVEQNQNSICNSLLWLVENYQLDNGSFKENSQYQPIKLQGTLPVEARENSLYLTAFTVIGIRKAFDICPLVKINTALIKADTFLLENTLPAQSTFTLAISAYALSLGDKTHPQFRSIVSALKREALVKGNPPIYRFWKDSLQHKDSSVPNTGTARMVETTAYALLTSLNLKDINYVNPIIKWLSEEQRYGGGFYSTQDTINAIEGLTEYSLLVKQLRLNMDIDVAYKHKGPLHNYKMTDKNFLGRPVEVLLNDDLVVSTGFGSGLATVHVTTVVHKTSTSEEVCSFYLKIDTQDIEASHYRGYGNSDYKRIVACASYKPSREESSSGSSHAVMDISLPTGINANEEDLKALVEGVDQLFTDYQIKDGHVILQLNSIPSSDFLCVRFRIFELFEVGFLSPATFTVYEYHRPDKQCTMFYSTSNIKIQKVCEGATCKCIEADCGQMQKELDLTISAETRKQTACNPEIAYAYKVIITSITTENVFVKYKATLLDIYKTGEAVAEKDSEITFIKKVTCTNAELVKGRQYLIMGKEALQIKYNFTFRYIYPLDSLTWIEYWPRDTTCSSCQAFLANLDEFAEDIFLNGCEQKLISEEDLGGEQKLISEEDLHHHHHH

B1: H4H12169P (antibody, human IgG4, V domains shown)
VH: EVQLVESGGGLAQPGGSLRLSCAASGFTFRSYAMSWVRQAPGKGPEWVSGIGGNGVTTYYADSVKGRFTISRDNSKNTLFLQMNSLRAEDTAVYYCVQGGLGGYFTGYWGQGTLVTVSS
VL: DIQMTQSPSSLSASVGDRVTITCRASQSISTYLNWYQQNPGKAPKLLIFDASSLQSGVPSRFSGSGSGTDFTLTIRGLQPEDFATYYCQQSYSAPLTFGGGTKVEIK
B2: H4H12168P (antibody, human IgG4, V domains shown)
VH: QVQLVESGGGVVQPGGSLRLSCAASGFTFGGHAMHWVRQAPGKGLEWLAVISSDGSNKQYADSVKGRFTISRDNPKNTLYLQMNSLRVGDTAIYYCAKEVAPRYYYYGLDVWGQGTTVTVSS
VL: DIQMTQSPSSLSASVGDRVTITCRASQDISNFLAWYQQKPGKVPKLLIYTASTLQSGVPSRFSGSGSGTDFTLTVSSLQPEDVATYYCQKYAGALTFGPGTKVDIK
B3: H4H12167P (antibody, human IgG4, V domains shown)
VH: QVQLVESGGGLVKPGGSLRLSCAASGFTFSDSYMSWIRQAPGKGLEWISYIGSSGNTFYYADSVKGRFTISRDNANNLLYLQMTSLRAEDTAVYYCAREEGDFWSAVDSWGQGTLVTVSS
VL: DIQLTQSPSFLSASVGDRVTITCWASQGISSYLAWYQQKPGKAPKLLIHTASTLQSGVPSRFSGSGSGTEFTLTISNLQPEDFATYYCQQLNSYPFTFGPGTKVDIK
B4: H4H12176P2 (antibody, human IgG4, V domains shown)
VH: EVQLVESGGGLVQPGGSLRLSCAASGFHSNRYWMDWVRQAPGKGLEWVANIKQDGSEENYVDSVKGRFTISRDNAKNSLYLQMNSLRAEDTAVYYCARDRSTSWVPYWFFDLWGRGTLVTVSS
VL: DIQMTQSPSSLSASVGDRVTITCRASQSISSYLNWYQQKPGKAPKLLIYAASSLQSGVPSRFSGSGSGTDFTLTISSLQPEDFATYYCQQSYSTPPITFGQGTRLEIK
B5: H4H12164P (antibody, human IgG4, V domains shown)
VH: EVQLVESGGGLVRSGGSLRLSCAASGFTFNRYAMTWVRQAPGKGLEWVSAISGSGSSTYYTDSVKGRFTISRDNSKNSVDLQMHSLRVEDTAIYYCARGTTVTTGYGMDVWGQGTTVTVSS
VL: DIQMTQSPSSLSASVGDRVTFTCQASQDITNSLNWYQQKPGRAPKLLIYDASYLKAGVPSRFSGSGSGTDFTFTISSLQPEDIATYYCQQYDDLPYTFGQGTKLEIK
B6: H4H12163P (antibody, human IgG4, V domains shown)
VH: EVQLVESGGDLVQPGGSLRLSCAASGFTFSSYAMNWVRQGPGKGLEWVSAISGRGDSTYYADSVKGRLTISRDNSKNTLYLQMNSLRAEDTAVYYCVKEGEQLVYWYFDLWGRGTLVTVSS
VL: DIQMTQSPSSLSASVGDRVTITCRASQTISNFLHWYQQKPGKAPKLLIYAASSLQSGVPSRFSGSGSGTDFTLTISSLQPEDFSTYFCQQSYTTPLTFGGGTKVEIK
B7: H4H12159P (antibody, human IgG4, V domains shown)
VH: QVQLVESGGGVVQPGRSLRLSCGASGFTFSTYGMHWVRQAPGKGLEWVAVIWDDGNNKYYADSVKGRFTISRDNSKNTLYLQMNSLRAEDTAVYYCARDSEVAPVGDYWGQGTLVTVSS
VL: DIQMTQSPSTLSASVGDRVTIICRASQSINRWLAWYQQKPGKAPKLLIYKASSLESGVPSRFSGSGSGTEFTLTISSLQPDDFAAYYCQQYNDYSYTFGQGTKLEIK
B8: H4H12175P (antibody, human IgG4, V domains shown)
VH: EVQLVESGGGVVQPGGSLRLSCAASGFTFNDYAMHWVRQAPGKGLEWVSLISGDGGNTYYADSVKGRLTISRDNSKNSLYLQMNSLRTEDTALYYCAKDKGWNFGYFDLWGRGTLVTVSS
VL: DIQMTQSPSSLSTSVGDRVTITCRASQNIDTYLNWYQQKPGKAPKLLIYDASSLQSGVPSRFSGSGSGTDFTLTITSLQPEDFATYYCQQNDNILHPLTFGGGTKVEIK

Experiments:
[1] = molecular target: T1, monkey C5-mmh; assay: SPR, mAb captured by anti-hFc, 25C
Procedure: (§1) Equilibrium dissociation constants (KD values) for C5 binding to purified anti-C5 antibodies were determined using a real-time surface plasmon resonance biosensor assay on a Biacore T200 instrument. The Biacore sensor surface was derivatized by amine coupling with a monoclonal mouse anti-human Fc antibody (GE Healthcare, # BR-1008-39) to capture anti-C5 antibodies expressed with human Fc constant regions. Biacore binding studies were conducted in HBST running buffer (0.01M HEPES pH 7.4, 0.15M NaCl, 3 mM EDTA, 0.05% v/v Surfactant P20).
(§2) Human C5 was obtained from a commercial source (EMD). Other C5 reagents were expressed with a C-terminal myc-myc-hexahistidine tag (subsequently referred to as C5-mmh). […] Association of all the C5 reagents to each of the captured monoclonal antibodies was monitored for 3 minutes and their dissociation in HBST running buffer was monitored for 8 minutes. All the binding kinetics experiments were performed at either 25° C. or 37° C. Kinetic association (kₐ) and dissociation (kd) rate constants were determined by fitting the real-time sensorgrams to a 1:1 binding model using Scrubber 2.0c curve fitting software. Binding dissociation equilibrium constants (KD) and dissociative half-lives (t %) were calculated from the kinetic rate constants as: KD (M)=kd/kₐ and t_{1/2} (min)=In2/(60×kd)

[2] = molecular target: T2, Human C5 (human, UniProt P01031 19-1676); assay: SPR, mAb captured by anti-hFc, 25C
T2 construct: The natural protein has a beta and an alpha chain; also called complement factor 5; complement component 5
Procedure: as §1, §2

[3] = molecular target: T2, Human C5; assay: SPR, mAb captured by anti-hFc, 37C
Procedure: as §1, §2

Row | Binder | 100 nM monkey C5-mmh Bound (RU) [1] | Kd [1] | koff [1] | kon [1] | t1/2 [1] | 100 nM Human C5 Bound (RU) [2] | Kd [2] | koff [2] | kon [2] | t½ [2] | 100 nM Human C5 Bound (RU) [3] | Kd [3] | koff [3] | kon [3] | t½ [3]
1 | B1 | 22 RU | 27.8 nM | 0.00455 s⁻¹ | 164000 M⁻¹ s⁻¹ | 3 min | 18 RU | 1.96 nM | 0.00044 s⁻¹ | 224000 M⁻¹ s⁻¹ | 26 min | 65 RU | 3.06 nM | 0.000352 s⁻¹ | 115000 M⁻¹ s⁻¹ | 33 min
2 | B2 | 86 RU | 0.66 nM | 0.000114 s⁻¹ | 173000 M⁻¹ s⁻¹ | 101 min | 113 RU | 0.112 nM | 4.75e-05 s⁻¹ | 423000 M⁻¹ s⁻¹ | 243 min | 12 RU | 18.5 nM | 0.000464 s⁻¹ | 25000 M⁻¹ s⁻¹ | 25 min
3 | B3 | 111 RU | 0.315 nM | 0.000132 s⁻¹ | 419000 M⁻¹ s⁻¹ | 88 min | 116 RU | 0.121 nM | 0.000131 s⁻¹ | 1.09e+06 M⁻¹ s⁻¹ | 88 min | 153 RU | 0.295 nM | 0.000381 s⁻¹ | 1.29e+06 M⁻¹ s⁻¹ | 30 min
4 | B4 | 69 RU | 0.322 nM | 5.88e-05 s⁻¹ | 182000 M⁻¹ s⁻¹ | 196 min | 96 RU | 0.201 nM | 6.75e-05 s⁻¹ | 336000 M⁻¹ s⁻¹ | 171 min | 71 RU | 1.59 nM | 0.000234 s⁻¹ | 147000 M⁻¹ s⁻¹ | 49 min
5 | B5 | 66 RU | 12 nM | 0.00153 s⁻¹ | 127000 M⁻¹ s⁻¹ | 8 min | 103 RU | 0.302 nM | 8.84e-05 s⁻¹ | 292000 M⁻¹ s⁻¹ | 131 min | 140 RU | 0.323 nM | 0.000128 s⁻¹ | 396000 M⁻¹ s⁻¹ | 90 min
6 | B6 | 98 RU | 2.49 nM | 0.000775 s⁻¹ | 311000 M⁻¹ s⁻¹ | 15 min | 108 RU | 0.324 nM | 0.000208 s⁻¹ | 643000 M⁻¹ s⁻¹ | 55 min | 139 RU | 0.729 nM | 0.000665 s⁻¹ | 911000 M⁻¹ s⁻¹ | 17 min
7 | B7 | 116 RU | 0.133 nM | 4.69e-05 s⁻¹ | 354000 M⁻¹ s⁻¹ | 246 min | 118 RU | 0.0731 nM | 7.13e-05 s⁻¹ | 975000 M⁻¹ s⁻¹ | 162 min | 145 RU | 0.103 nM | 0.000107 s⁻¹ | 1.04e+06 M⁻¹ s⁻¹ | 108 min
8 | B8 | 59 RU | 25.7 nM | 0.00165 s⁻¹ | 64200 M⁻¹ s⁻¹ | 7 min | 100 RU | 0.91 nM | 0.000196 s⁻¹ | 216000 M⁻¹ s⁻¹ | 59 min | 132 RU | 2.15 nM | 0.000637 s⁻¹ | 296000 M⁻¹ s⁻¹ | 18 min
